{"source": "patent US20180141972", "proteins": {"B1": {"name": "SplB protease with shortened ARVC-pep tag (the least shortened of the 3 progressively shortened peptide tags) (protein)", "chain": "ENNVTKVKDTNIFPYTGVVAFKSATGFVVGKNTILTNKHVSKNYKVGDRITAHPNSDKGNGGIYSIKKIINYPGKEDVSVIQVEERAIERGPKGFNFNDNVTPFKYAAGAKAGERIKVIGYPHPYKNKYVLYESTGPVMSVEGSSIVYSAHTESGNSGSPVLNSNNELVGIHFASDVKNDDNRNAYGVYFTPEIKKFIAENIDK"}, "B2": {"name": "Commercial SplB protease, non-tagged (protein)", "chain": "B1 chain"}, "B3": {"name": "SplB protease with full-length ARVCF peptide tag at C-terminus (protein)", "chain": "ENNVTKVKDTNIFPYTGVVAFKSATGFVVGKNTILTNKHVSKNYKVGDRITAHPNSDKGNGGIYSIKKIINYPGKEDVSVIQVEERAIERGPKGFNFNDNVTPFKYAAGAKAGERIKVIGYPHPYKNKYVLYESTGPVMSVEGSSIVYSAHTESGNSGSPVLNSNNELVGIHFASDVKNDDNRNAYGVYFTPEIKKFIAENIDKPQPVDSWV"}, "B4": {"name": "HIS-SplB-ARVC-pep (protein)", "chain": "B3 chain"}, "B5": {"name": "TEV protease fused to the optimised 4-amino acid truncated ARVCF peptide (protein)", "chain": "GESLFKGPRDYNPISSTICHLTNESDGHTTSLYGIGFGPFIITNKHLFRRNNGTLLVQSLHGVFKVKNTTTLQQHLIDGRDMIIIRMPKDFPPFPQKLKFREPQREERICLVTTNFQTKSMSSMVSDTSCTFPSSDGIFWKHWIQTKDGQCGSPLVSTRDGFIVGIHSASNFTNTNNYFTSVPKNFMELLTNQEAQQWVSGWRLNADSVLWGGHKVFMSKPEEPFQPVKEATQLMNELVYSQDSWV"}, "B6": {"name": "HIS-TEV-AP4 (protein)", "chain": "B5 chain"}, "B7": {"name": "wild-type TEV protease, untagged (protein)", "chain": "GESLFKGPRDYNPISSTICHLTNESDGHTTSLYGIGFGPFIITNKHLFRRNNGTLLVQSLHGVFKVKNTTTLQQHLIDGRDMIIIRMPKDFPPFPQKLKFREPQREERICLVTTNFQTKSMSSMVSDTSCTFPSSDGIFWKHWIQTKDGQCGSPLVSTRDGFIVGIHSASNFTNTNNYFTSVPKNFMELLTNQEAQQWVSGWRLNADSVLWGGHKVFMSKPEEPFQPVKEATQLMNELVYSQ"}, "B8": {"name": "HIS-TEV (protein)", "chain": "B7 chain"}, "B9": {"name": "SplB protease with ARVCF peptide truncated by 4 amino acids (DSWV) (protein)", "chain": "ENNVTKVKDTNIFPYTGVVAFKSATGFVVGKNTILTNKHVSKNYKVGDRITAHPNSDKGNGGIYSIKKIINYPGKEDVSVIQVEERAIERGPKGFNFNDNVTPFKYAAGAKAGERIKVIGYPHPYKNKYVLYESTGPVMSVEGSSIVYSAHTESGNSGSPVLNSNNELVGIHFASDVKNDDNRNAYGVYFTPEIKKFIAENIDKDSWV"}}, "key": {"[1]": {"biological_target": "ePDZ-b-WELQ-OFP fusion substrate"}, "[2]": {"biological_target": "Spycatcher-WELQ-LSSmOrange fusion protein"}, "[3]": {"biological_target": "T1, Spycatcher-WELQ-Tem1 fusion protein (Spycatcher followed by a SplB protease site with a P1' methionine and the lactamase Tem1), P62593", "T1 chain": "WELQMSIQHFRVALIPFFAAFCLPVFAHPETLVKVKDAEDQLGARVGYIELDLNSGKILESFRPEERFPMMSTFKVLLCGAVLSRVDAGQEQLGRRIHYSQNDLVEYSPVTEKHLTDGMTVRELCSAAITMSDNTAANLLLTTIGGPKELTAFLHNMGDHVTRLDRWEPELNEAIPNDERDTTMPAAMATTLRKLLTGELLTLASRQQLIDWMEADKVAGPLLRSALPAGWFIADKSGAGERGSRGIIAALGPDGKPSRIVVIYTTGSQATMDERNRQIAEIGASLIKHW"}, "[4]": {"biological_target": "HIS-ePDZ-b-WELQ-OFP fusion substrate protein"}, "[5]": {"biological_target": "ePDZ-b-ENLYFQ-OFP fusion protein"}, "[6]": {"biological_target": "HIS-ePDZ-b-ENLYFQ-OFP fusion substrate protein"}}, "data": [{"protein": "B1", "values": [{"measurement": "cleavage efficiency at high protease concentration (gel, FIG. 5, lanes 2-5)", "setting": "[1]", "value": "At high protease concentration, no variation was observed in cleavage efficiency"}, {"measurement": "cleavage to yield native OFP (gel, FIG. 5)", "setting": "[1]", "value": "These tagged proteases all showed improved cleavage to yield native OFP (red arrow) compared to SplB protease tagged with a non-specific C-terminal peptide (SplB-CON) and commercial nontagged SplB protease (SplB-COM)"}]}, {"protein": "B2", "values": [{"measurement": "cleavage of the fusion protein to native LSSmOrange (gel, FIG. 4)", "setting": "[2]", "value": "A similar experiment with LSSmOrange replacing Tem1 yielded the same result"}, {"measurement": "cleavage of the fusion protein to native Tem1 (gel, FIG. 3)", "setting": "[3]", "value": "Commercial SplB protease, lacking the fused spytag, was only able to produce minimal native Tem1"}, {"measurement": "cleavage of the fusion substrate to native OFP (gel, FIG. 5)", "setting": "[1]", "value": "Neither SplB-COM or Spl-CON was able to completely digest the fusion substrate"}]}, {"protein": "B3", "values": [{"measurement": "cleavage efficiency at high protease concentration (gel, FIG. 5, lanes 2-5)", "setting": "[1]", "value": "At high protease concentration, no variation was observed in cleavage efficiency"}, {"measurement": "cleavage of the fusion substrate to native OFP (gel, FIG. 5)", "setting": "[1]", "value": "this was notably more efficient for SplB-AP compared to SplB-COM and SplB fused to a control peptide that does not interact with ePDZ-b (SplB-CON)"}, {"measurement": "cleavage to yield native OFP (gel, FIG. 5)", "setting": "[1]", "value": "These tagged proteases all showed improved cleavage to yield native OFP (red arrow) compared to SplB protease tagged with a non-specific C-terminal peptide (SplB-CON) and commercial nontagged SplB protease (SplB-COM)"}]}, {"protein": "B4", "values": [{"measurement": "on-column cleavage to native OFP (gel, FIG. 7)", "setting": "[4]", "value": "Addition of 30 mM imidazole alleviated this constraint, resulting in improved cleavage efficiencies using histidine tagged ePDZ-b -WELQ-OFP and SplB-AP proteins"}]}, {"protein": "B5", "values": [{"measurement": "cleavage of the fusion substrate to native OFP (gel, FIG. 6A)", "setting": "[5]", "value": "The results show clearly improved cleavage when TEV is fused to the optimised 4-amino acid truncated ARVCF peptide (TEV-AP4)"}, {"measurement": "generation of native OFP over time (gel, FIG. 6A)", "setting": "[5]", "value": "Native OFP (arrowed red) was rapidly generated through use of TEV-AP4 compared to endogenous TEV"}, {"measurement": "incubation time to near complete cleavage (gel, FIG. 6A)", "setting": "[5]", "value": "near completion around 2.5 hours"}, {"measurement": "incubation time to notable cleavage (gel, FIG. 6A)", "setting": "[5]", "value": "Notable cleavage was observed after only 30 minutes incubation"}]}, {"protein": "B6", "values": [{"measurement": "yield of native OFP after on-column cleavage (gel, FIG. 8, lanes 6 and 15)", "setting": "[6]", "value": "the yield of native OFP was significantly increased when histidine tagged TEV-AP4 was used compared to histidine tagged TEV"}]}, {"protein": "B7", "values": [{"measurement": "cleavage of the fusion substrate to native OFP (gel, FIG. 6A)", "setting": "[5]", "value": "wild-type TEV protease did not show significant cleavage even after 24 hours incubation"}, {"measurement": "generation of native OFP over time (gel, FIG. 6A)", "setting": "[5]", "value": "Native OFP (arrowed red) was rapidly generated through use of TEV-AP4 compared to endogenous TEV"}]}, {"protein": "B8", "values": [{"measurement": "yield of native OFP after on-column cleavage (gel, FIG. 8, lanes 6 and 15)", "setting": "[6]", "value": "the yield of native OFP was significantly increased when histidine tagged TEV-AP4 was used compared to histidine tagged TEV"}]}, {"protein": "B9", "values": [{"measurement": "cleavage activity at sub-stoichiometric protease (gel, FIG. 5, lanes 16, 18-19)", "setting": "[1]", "value": "At sub-stoichiometric amounts, 3 and 4 amino acid truncations of the ARVCF peptide showed clear improvements in activity compared to full-length peptide"}, {"measurement": "cleavage efficiency at high protease concentration (gel, FIG. 5, lanes 2-5)", "setting": "[1]", "value": "At high protease concentration, no variation was observed in cleavage efficiency"}, {"measurement": "cleavage to yield native OFP (gel, FIG. 5)", "setting": "[1]", "value": "These tagged proteases all showed improved cleavage to yield native OFP (red arrow) compared to SplB protease tagged with a non-specific C-terminal peptide (SplB-CON) and commercial nontagged SplB protease (SplB-COM)"}]}]}
